Measurements from paper PMC10250397.

Target: SERCA2-mTurquoise2 (UniProt P16615)
Assay: FRET or BRET; three channel sensitized emission FRET on living HEK293-T cells, SERCA2-mTurquoise2 donor and GSK3β-sYFP2 acceptor, confocal microscope; normoxia or 60 min hypoxia followed by 30 min reoxygenation

GSK3β-sYFP2, sequence (P49841 whole entry): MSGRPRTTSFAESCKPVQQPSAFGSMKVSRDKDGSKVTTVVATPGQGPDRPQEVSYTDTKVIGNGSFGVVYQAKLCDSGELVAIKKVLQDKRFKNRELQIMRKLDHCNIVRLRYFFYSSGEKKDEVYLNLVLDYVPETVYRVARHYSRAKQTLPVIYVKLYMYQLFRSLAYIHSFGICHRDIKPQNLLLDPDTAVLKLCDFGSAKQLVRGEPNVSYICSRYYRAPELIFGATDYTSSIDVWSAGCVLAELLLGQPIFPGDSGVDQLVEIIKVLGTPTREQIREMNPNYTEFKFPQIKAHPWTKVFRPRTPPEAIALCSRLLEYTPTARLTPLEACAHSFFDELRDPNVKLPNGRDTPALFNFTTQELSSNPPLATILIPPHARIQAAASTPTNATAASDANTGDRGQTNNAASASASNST
UniProt P16615, sequence (P16615 whole entry): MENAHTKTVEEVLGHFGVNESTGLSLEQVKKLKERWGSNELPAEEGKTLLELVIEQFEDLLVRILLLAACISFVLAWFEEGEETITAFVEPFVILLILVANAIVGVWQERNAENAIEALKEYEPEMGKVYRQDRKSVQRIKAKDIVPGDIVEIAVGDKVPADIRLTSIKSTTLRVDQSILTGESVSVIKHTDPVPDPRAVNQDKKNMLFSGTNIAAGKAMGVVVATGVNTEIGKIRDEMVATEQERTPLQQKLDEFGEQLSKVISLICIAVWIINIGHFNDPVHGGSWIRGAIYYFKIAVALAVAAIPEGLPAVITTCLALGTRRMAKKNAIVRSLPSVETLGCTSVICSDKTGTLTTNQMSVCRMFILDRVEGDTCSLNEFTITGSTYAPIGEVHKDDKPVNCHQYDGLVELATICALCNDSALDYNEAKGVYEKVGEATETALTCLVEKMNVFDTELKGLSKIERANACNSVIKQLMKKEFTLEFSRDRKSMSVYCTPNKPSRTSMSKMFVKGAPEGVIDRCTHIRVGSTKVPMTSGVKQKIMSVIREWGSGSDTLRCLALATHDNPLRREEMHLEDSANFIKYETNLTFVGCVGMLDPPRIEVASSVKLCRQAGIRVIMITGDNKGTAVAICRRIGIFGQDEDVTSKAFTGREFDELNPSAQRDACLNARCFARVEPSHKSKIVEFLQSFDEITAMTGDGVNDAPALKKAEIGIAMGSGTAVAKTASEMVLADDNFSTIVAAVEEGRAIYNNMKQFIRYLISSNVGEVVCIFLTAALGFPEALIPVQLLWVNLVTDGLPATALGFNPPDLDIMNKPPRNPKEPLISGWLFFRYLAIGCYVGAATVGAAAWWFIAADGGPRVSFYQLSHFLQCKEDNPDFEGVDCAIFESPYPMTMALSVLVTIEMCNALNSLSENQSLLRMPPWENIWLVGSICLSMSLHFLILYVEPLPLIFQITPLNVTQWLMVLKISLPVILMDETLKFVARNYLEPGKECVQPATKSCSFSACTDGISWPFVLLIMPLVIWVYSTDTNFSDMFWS

Substance	fold change of FRET efficiency after H/R against normoxia	FRET efficiency
GSK3β-sYFP2 (from UniProt P49841 1-420) (enzyme)	3 fold	
GSK3β-sYFP2 (from UniProt P49841 1-420) (living HEK293-T cells)		3.11%
